The target in this data set is T1, Aspergillus ochraceus 11 alpha hydroxylase.
T1 chain: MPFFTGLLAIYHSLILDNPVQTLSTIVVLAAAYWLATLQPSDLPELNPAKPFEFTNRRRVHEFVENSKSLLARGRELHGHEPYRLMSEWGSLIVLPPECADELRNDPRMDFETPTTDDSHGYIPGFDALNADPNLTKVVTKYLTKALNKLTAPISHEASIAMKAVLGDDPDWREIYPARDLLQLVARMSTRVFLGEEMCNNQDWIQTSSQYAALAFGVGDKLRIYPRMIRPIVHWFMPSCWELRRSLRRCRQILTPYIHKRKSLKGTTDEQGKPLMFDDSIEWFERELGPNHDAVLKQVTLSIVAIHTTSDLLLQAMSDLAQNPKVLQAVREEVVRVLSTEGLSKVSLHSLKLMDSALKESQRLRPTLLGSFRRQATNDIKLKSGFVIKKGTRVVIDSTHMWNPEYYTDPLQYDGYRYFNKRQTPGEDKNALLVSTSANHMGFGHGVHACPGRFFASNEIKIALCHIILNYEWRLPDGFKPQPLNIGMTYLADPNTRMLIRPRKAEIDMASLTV

B1: human oxidoreductase (protein)
chain: MGDSHVDTSSTVSEAVAEEVSLFSMTDMILFSLIVGLLTYWFLFRKKKEEVPEFTKIQTLTSSVRESSFVEKMKKTGRNIIVFYGSQTGTAEEFANRLSKDAHRYGMRGMSADPEEYDLADLSSLPEIDNALVVFCMATYGEGDPTDNAQDFYDWLQETDVDLSGVKFAVFGLGNKTYEHFNAMGKYVDKRLEQLGAQRIFELGLGDDDGNLEEDFITWREQFWPAVCEHFGVEATGEESSIRQYELVVHTDIDAAKVYMGEMGRLKSYENQKPPFDAKNPFLAAVTTNRKLNQGTERHLMHLELDISDSKIRYESGDHVAVYPANDSALVNQLGKILGADLDVVMSLNNLDEESNKKHPFPCPTSYRTALTYYLDITNPPRTNVLYELAQYASEPSEQELLRKMASSSGEGKELYLSWVVEARRHILAILQDCPSLRPPIDHLCELLPRLQARYYSIASSSKVHPNSVHICAVVVEYETKAGRINKGVATNWLRAKEPAGENGGRALVPMFVRKSQFRLPFKATTPVIMVGPGTGVAPFIGFIQERAWLRQQGKEVGETLLYYGCRRSDEDYLYREELAQFHRDGALTQLNVAFSREQSHKVYVQHLLKQDREHLWKLIEGGAHIYVCGDARNMARDVQNTFYDIVAELGAMEHAQAVDYIKKLMTKGRYSLDVWS
Regarding B1, the “conversion of 4-androstene-3,17-dione (AD) to 11 alpha-hydroxy-AD, by HPLC” value is on record as “successfully catalyzed the conversion of the steroid substrate 4-androstene-3,17-dione (AD) to 11 alpha-hydroxy-AD”.
